Measurements taken from patent publication US20210238289A1.

How the values were obtained:
CD32a = CD32a (UniProt P12318); assay: solution competition SPR (Biacore)
[1] = biological target: VLA-4 on tumor cell lines (UniProt P13612); assay: inhibition of adhesion of HL60 cells to VCAM1-Ig-coated wells
[2] = biological target: VLA-4 on tumor cell lines (UniProt P13612); assay: inhibition of adhesion of H929 cells to fibronectin-coated wells
[3] = biological target: VLA-4 on tumor cell lines (UniProt P13612); assay: flow cytometry on KG1 cells (AML)
[4] = biological target: α4β1 (VLA-4) as used in the competition ELISAs (UniProt P13612); assay: competition ELISA; mixture of mouse HP1/2 with test mAb binding to integrin
[5] = biological target: VLA-4 on tumor cell lines (UniProt P13612); assay: inhibition of adhesion of U266 cells to VCAM1-Ig-coated wells
[6] = biological target: VLA-4 on tumor cell lines (UniProt P13612); assay: flow cytometry on HL60 cells (AML)
[7] = biological target: α4β1 (VLA-4) as used in the competition ELISAs (UniProt P13612); assay: competition ELISA; integrin preincubated with test mAb, then murine HP1/2 as competing reagent
[8] = biological target: VLA-4 on tumor cell lines (UniProt P13612); assay: inhibition of adhesion of U266 cells to fibronectin-coated wells
[9] = biological target: VLA-4 on tumor cell lines (UniProt P13612); assay: flow cytometry on JM1 cells (CLL)
[10] = biological target: VLA-4 on tumor cell lines (UniProt P13612); assay: flow cytometry on H929 cells (MM)
[11] = biological target: VLA-4 on tumor cell lines (UniProt P13612); assay: inhibition of adhesion of KG1 cells to VCAM1-Ig-coated wells
[12] = biological target: VLA-4 on tumor cell lines (UniProt P13612); assay: inhibition of adhesion of HL60 cells to fibronectin-coated wells
[13] = biological target: VLA-4 on tumor cell lines (UniProt P13612); assay: flow cytometry on U266 cells (MM)
[14] = biological target: VLA-4 on tumor cell lines (UniProt P13612); assay: inhibition of adhesion of H929 cells to VCAM1-Ig-coated wells
[15] = biological target: VLA-4 on tumor cell lines (UniProt P13612); assay: flow cytometry on Mec1 cells (CLL)
[16] = biological target: VLA-4 on tumor cell lines (UniProt P13612); assay: inhibition of adhesion of Mec1 cells to fibronectin-coated wells
[17] = biological target: VLA-4 on tumor cell lines (UniProt P13612); assay: inhibition of adhesion of Mec1 cells to VCAM1-Ig-coated wells
[18] = biological target: VLA-4 on tumor cell lines (UniProt P13612); assay: inhibition of adhesion of KG1 cells to fibronectin-coated wells
[19] = biological target: VLA-4 on tumor cell lines (UniProt P13612); assay: inhibition of adhesion of JM1 cells to VCAM1-Ig-coated wells
[20] = biological target: VLA receptors (alpha-4 integrin) of cynomolgus monkeys in vivo (cynomolgus monkey); assay: free receptor measured in cynomolgus monkeys after a single IV dose
[21] = biological target: VLA receptors (alpha-4 integrin) of cynomolgus monkeys in vivo (cynomolgus monkey); assay: model-estimated (direct Emax PKPD model) EC50 for the formation of drug-bound VLA in cynomolgus monkeys

Chain of TYSABRI (natalizumab) (antibody) (VH): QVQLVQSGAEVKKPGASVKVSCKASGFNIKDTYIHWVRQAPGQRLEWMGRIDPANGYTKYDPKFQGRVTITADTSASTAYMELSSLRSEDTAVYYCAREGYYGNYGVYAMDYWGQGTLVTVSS
Chain of TYSABRI (natalizumab) (antibody) (VL): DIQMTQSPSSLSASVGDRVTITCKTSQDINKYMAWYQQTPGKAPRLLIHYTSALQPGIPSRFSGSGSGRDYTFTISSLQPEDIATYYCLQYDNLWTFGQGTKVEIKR

Q: How did the IC50 (CD32a) turn out when EAG2379 (hu5c8 IgG1 T299E) (antibody) was run?
A: Its IC50 is 1280 µM.

Q: What does the source list for HuHP1/2 (antibody)?
A: IC50 [1]: 0.00091 µM; IC50 [2]: 0.00021 µM; EC50 [3]: 0.00019 µM; IC50 [4]: 0.00141 µM; IC50 [5]: 0.00013 µM; EC50 [6]: 0.00011 µM; IC50 [7]: 0.00105 µM; IC50 [8]: 0.00014 µM; EC50 [9]: 0.00021 µM; EC50 [10]: 0.00091 µM; IC50 [11]: 0.0001 µM; IC50 [12]: 0.00016 µM; EC50 [13]: 0.00046 µM; IC50 [14]: 0.00135 µM; EC50 [15]: 0.00011 µM; IC50 [16]: 0.0001 µM; IC50 [17]: 70 pM; IC50 [18]: 50 pM; IC50 [19]: 0.00012 µM

Q: Which results are given for TYSABRI (natalizumab) (antibody)?
A: receptor occupancy [20]: > 90%; EC50 [21]: 6.4 ng/mL
